From publication PMC8044208 (2021)

B1: human MLKL pseudokinase domain, as used for the KD measurements (domain or fragment)
chain: QEQIKEIKKEQLSGSPWILLRENEVSTLYKGEYHRAPVAIKVFKKLQAGSIAIVRQTFNKEIKTMKKFESPNILRIFGICIDETVTPPQFSIVMEYCELGTLRELLDREKDLTLGKRMVLVLGAARGLYRLHHSEAPELHGKIRSSNFLVTQGYQVKLAGFELRKTQTSMSLGTTREKTDRVKSTAYLSPQELEDVFYQYDVKSEIYSFGIVLWEIATGDIPFQGCNSEKIRKLVAVKRQQEPLGEDCPSELREIIDECRAHDPSVRPSVDEILKKLSTFSK
B2: Mb(MLKL_32) (protein)
chain: VSSVPTKLEVVAATPTSLLISWDAPAVTVDLYIITYGETGGNSPVQTFEVPGSKSTATISGLSPGVDYTITVYAYSFMYHDYYYPEWSPISINYRT

Assays:
Mb(MLKL_26) = assay: FACS; yeast display
[1] = target: B1; assay: previously reported

Binder	Kd (Mb(MLKL_26)) [nM]	Kd [1] [nM]
B1	176	
B2		37.1
